The values that follow come from US20230265192A1 (GIGAGEN, published 2023).

Where two headings read alike, the source gives them in different places.

In assay [1] the target is T1, His-tagged human CTLA-4 (CT4-H5229; Acro Biosystems) (human, UniProt P16410 36-161).
T1 construct: bought soluble protein; also called soluble human CTLA-4; recombinant human CTLA-4; not shown: His tag
Put plainly: SPR (Carterra). How it is done:
(§1) Then, goat anti-Human IgG Fc (Southern Biotech 2047-01) was coupled for 10 minutes at […] in 10 mM Sodim Acetate pH 4.5 (Carterra Inc.). The surface was then deactivated with 1 M ethanolamine pH 8.5 (Carterra Inc.). Running buffer used for the lawn immobilization was HBS-EPC (10 mM HEPES, 150 mM NaCl, 3 mM EDTA, 0.05% Tween 20, pH 7.4; Teknova).
(§2) The sensor chip was then transferred to a continuous flow microspotter (CFM; Carterra Inc.) for array capturing. The mAb supernatants were diluted 50-fold ([…] final concentration) into HBS-EPC with 1 mg/mL BSA. The samples were each captured twice with 15-minute and 4-minute capture steps on the first and second prints, respectively, to create multiple densities, using a […] flow rate. The running buffer in the CFM was also HBS-EPC.
(§3) Next, the sensor chip was loaded onto an SPR reader (MX-96 system; Ibis Technologies) for the kinetic analysis. CTLA-4 was injected at five increasing concentrations in a four-fold dilution series with concentrations of 1.95, 7.8, 31.25, 125, and 500 nM in running buffer (HBS-EPC with 1.0 mg/mL BSA). CTLA-4 injections were 5 minutes with a 15-minute dissociation at […] in a non-regenerative kinetic series. An injection of the goat anti-Human IgG Fc capture antibody at […] was injected at the end of the series to verify the capture level of each mAb. Binding data was double referenced by subtracting an interspot surface and a blank injection and analyzed for ka (on-rate), kd (off-rate), and KD (affinity) using the Kinetic Interaction Tool software (Carterra Inc.).

Assay [2] concerns the target T1, His-tagged human CTLA-4 (CT4-H5229; …). Kind of assay: SPR (Carterra). How it is done: as §1, §2, §3
This is another data set of the same source.

Assay [3] has as its target T2, human CTLA-4 expressed on the cell surface (human, UniProt P16410 36-223).
T2 construct: CHO cells stably expressing human CTLA-4; also called hCTLA-4; CTLA-4+ CHO cells
Kind of assay: flow cytometry, 10 µg/mL mAb, geometric MFI. How it is done:
(§4) Table 23. In vitro characterization of scFvs reformatted as full-length antibodies. kon, koff, and KD of the indicated CTLA-4 mAbs for soluble human CTLA-4 was determined by SPR (Carterra). Geometric MFI of the indicated CTLA-4 mAbs bound to CTLA-4⁺ or CD27⁺ CHO cells as detected by a secondary human IgG antibody and flow cytometry. Affinity (KD) of the indicated CTLA-4 mAbs for soluble cynomolgus CTLA-4 was determined by a single antigen concentration BLI measurement (Octet). […] Due to constraints on sample size in each Promega bioassay kit, this set of aCTLA-4 mAbs was analyzed using multiple plates (plate letters correspond to Plate A-D in FIG. 20D).
(§5) To determine if the CTLA-4 mAbs bound the appropriate antigen expressed on the surface of mammalian cells, CHO cell lines stably expressing human CTLA-4 or an irrelevant antigen (CD27) were generated. Cells (0.5×10⁶ each cell line) were combined and washed with MACS buffer (Dulbecco's Phosphate Buffered Saline [DPBS], with 0.5% bovine serum albumin [BSA], and 2 mM ethylenediaminetetraacetic acid [EDTA]). The cells were incubated with 10 μg/mL anti-CTLA-4 for 30 min at 4° C., then excess, unbound mAbs were removed by washing twice with MACS buffer. The cells were then stained with PE-conjugated anti-Human IgG Fc antibody (clone M1310G05, BioLegend 410720, San Diego, Calif., USA) to detect bound anti-CTLA-4 and with fluorescein isothiocyanate (FITC)-conjugated anti-CD27 (clone 0323, BioLegend 302806, San Diego, Calif., USA) to distinguish the cells expressing the irrelevant antigen. Cells were washed twice with MACS buffer, fixed with 4% paraformaldehyde fixation buffer (BioLegend 420801, San Diego, Calif., USA) for 20 minutes at room temperature and washed twice more with MACS buffer.

Assay [4] addresses T3, CD27 on CHO cells (UniProt P26842 20-260, limits assumed).
T3 construct: whole, on cells; also called CD27+ CHO cells; irrelevant antigen (CD27)
Put plainly: flow cytometry, 10 µg/mL mAb, geometric MFI. The protocol:
as §4, §5
On the technique in general: In flow cytometry, cells or beads pass a laser one at a time.

Assay [5] deals with T3, CD27 on CHO cells. Put plainly: flow cytometry, mixed CTLA-4+ and CD27+ CHO cells. The protocol:
To determine if the CTLA-4 mAbs bound the appropriate antigen expressed on the surface of mammalian cells, CHO cell lines stably expressing human CTLA-4 or an irrelevant antigen (CD27) were generated. Cells (0.5×10⁶ each cell line) were combined and washed with MACS buffer (Dulbecco's Phosphate Buffered Saline [DPBS], with 0.5% bovine serum albumin [BSA], and 2 mM ethylenediaminetetraacetic acid [EDTA]). The cells were incubated with 10 μg/mL anti-CTLA-4 for 30 min at 4° C., then excess, unbound mAbs were removed by washing twice with MACS buffer. The cells were then stained with PE-conjugated anti-Human IgG Fc antibody (clone M1310G05, BioLegend 410720, San Diego, Calif., USA) to detect bound anti-CTLA-4 and with fluorescein isothiocyanate (FITC)-conjugated anti-CD27 (clone 0323, BioLegend 302806, San Diego, Calif., USA) to distinguish the cells expressing the irrelevant antigen. Cells were washed twice with MACS buffer, fixed with 4% paraformaldehyde fixation buffer (BioLegend 420801, San Diego, Calif., USA) for 20 minutes at room temperature and washed twice more with MACS buffer. […] Binding of mAbs to CTLA-4 on the cell surface was determined using LSR II (BD Biosciences, San Jose, Calif., USA) or CytoFLEX LX (Beckman Coulter, Brea. Calif., USA) flow cytometers and analyzed using FlowJo (v10.6.1, BD Biosciences, San Jose, Calif., USA).

The next assay addresses mouse CTLA-4 (mouse, UniProt P09793 36-161, limits assumed). Put plainly: BLI (Octet). How it is done:
(§6) The binding specificity and affinity of each full-length antibody towards CTLA-4 were determined using biolayer interferometry (BLI) and/or surface plasmon resonance (SPR). Anti-cyno CTLA-4 and anti-mouse CTLA-4 affinities were tested using ForteBio (BLI). Anti-human CTLA-4 affinities were measured using Carterra (SPR).
(§7) For BLI, antibodies were loaded onto an Anti-Human IgG Fc (AHC) biosensor using the Octet Red96 system (ForteBio). Loaded biosensors were dipped into antigen dilutions beginning at 300 nM, with 6 serial dilutions at 1:3. Kinetic analysis was performed using a 1:1 binding model and global fitting.

Assay [6] has as its target T4, His-tagged cynomolgus CTLA-4 (CT4-C5227; Acro Biosystems) (cynomolgus, UniProt G7PL88 36-161).
T4 construct: also called soluble cynomolgus CTLA-4; cyno CTLA-4
Kind of assay: BLI (Octet). How it is done: as §6, §7
On the technique in general: Biolayer interferometry detects binding as a change in optical thickness at a sensor tip.

Assay [7] concerns the target T2, human CTLA-4 expressed on the cell …. Put plainly: cell-based or functional assay.

T3 sequence (P26842 20-260 limits assumed): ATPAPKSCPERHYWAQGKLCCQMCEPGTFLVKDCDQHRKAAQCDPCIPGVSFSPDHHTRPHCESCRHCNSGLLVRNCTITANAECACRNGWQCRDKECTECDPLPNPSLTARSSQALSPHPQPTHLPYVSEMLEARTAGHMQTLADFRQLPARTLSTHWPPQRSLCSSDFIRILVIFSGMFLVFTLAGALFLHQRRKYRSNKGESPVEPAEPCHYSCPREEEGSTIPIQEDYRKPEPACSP
T4 sequence (G7PL88 entry or part of it limits assumed, form in doubt): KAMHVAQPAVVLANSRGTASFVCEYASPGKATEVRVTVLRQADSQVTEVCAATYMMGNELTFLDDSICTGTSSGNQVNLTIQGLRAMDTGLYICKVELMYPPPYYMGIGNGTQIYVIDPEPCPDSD
T2 sequence (P16410 36-223 limits assumed): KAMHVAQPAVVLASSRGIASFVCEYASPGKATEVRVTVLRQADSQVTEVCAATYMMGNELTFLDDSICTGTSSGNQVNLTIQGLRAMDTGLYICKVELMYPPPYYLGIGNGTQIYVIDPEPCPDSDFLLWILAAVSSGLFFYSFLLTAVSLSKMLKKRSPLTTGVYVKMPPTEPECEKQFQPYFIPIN
T1 sequence (P16410 36-161 limits assumed): as the sequence (G7PL88 entry or part of it limits assumed, form in doubt) above, with N14S, T18I, M106L counted along it
mouse CTLA-4, sequence (P09793 36-161 limits assumed): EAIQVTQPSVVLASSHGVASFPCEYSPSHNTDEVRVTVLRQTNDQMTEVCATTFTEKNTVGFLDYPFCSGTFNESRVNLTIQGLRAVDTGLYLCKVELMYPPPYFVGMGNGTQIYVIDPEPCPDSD

B1: antibody A27 (L27H27) (antibody, V domains shown)
VH: QVQLVQSGAEVKKPGASVKVSCKASGYTFTSYGISWVRQAPGQGLEWMGWISAYNGNTNYAQKLQGRVTMTTDTSTSTAYMELRSLRSDDTAVYYCGRWVRGVEYWGQGTLVTVSS
VL: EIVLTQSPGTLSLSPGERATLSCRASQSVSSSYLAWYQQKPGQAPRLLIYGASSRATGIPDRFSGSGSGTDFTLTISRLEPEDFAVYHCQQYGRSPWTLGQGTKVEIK
notes: also called aCTLA-4.8
A word on the Kd: it is the constant that tells how readily two partners part at equilibrium. What is called koff is a measure of how fast the partners let go of each other. Higher therefore signals fast dissociation. Usually kon stands for a measure of how fast the partners come together. The low end stands for slower complex formation, the high end for faster complex formation. Turning to B1, in assay [1], binding was put at a Kd of 120 nM. In assay [2], this molecule gave a Kd of 120 nM, a koff of 0.0036 s⁻¹ and a kon of 31000 M⁻¹ s⁻¹.

B2: antibody A21 (L21H21) (antibody, V domains shown)
VH: QVQLVESGGGVVQPGRSLRLSCAASGFTFSSYGMHWVRQAPGKGLEWVAVIWYDGNNKYYADSVKGRFTISRDNSKNTLYLHMNSLRADDTAVYYCARMLRGAPYYYGMDVWGQGTTVTVSS
VL: not shown
notes: also called aCTLA-4.10
As for B2, the Kd in assay [1] is 31 nM. In assay [2], this molecule displayed a Kd of 31 nM, a koff of 0.00055 s⁻¹ and a kon of 18000 M⁻¹ s⁻¹.

B3: antibody A14 (L14H14), GIGA-564 (antibody, V domains shown)
VH: QVQLVESGGGVVQPGRSLRLSCAASGFTFSSYGMHWVRQAPGTGLEWVAVIWYEGRNKYYADPVKGRFTISRDNSKNTLYLQMNSLRDDDTAVYYCARAGDLGAFDIWGQGTMVTVSSA
VL: not shown
notes: also called aCTLA-4.15
With B3, in assay [3], the “MFI of CTLA-4+ CHO cells” value was found to be 717. In addition, the “MFI of CD27+ CHO cells” value with CD27 on CHO cells [4] stood at 15.9. For the same molecule, the binding result with CD27 on CHO cells [5] is recorded as “no binding (tested: 10 µg/mL)”.

B4: Ipilimumab analog (antibody, V domains shown)
VH: QVQLVESGGGVVQPGRSLRLSCAASGFTFSSYTMHWVRQAPGKGLEWVTFISYDGNNKYYADSVKGRFTISRDNSKNTLYLQMNSLRAEDTAIYYCARTGWLGPFDYWGQGTLVTVSS
VL: not shown
notes: also called ipi analog; in-house produced ipilimumab
Turning to B4, the binding result in the assay with mouse CTLA-4 is “no binding (tested: 300 nM)”.

B5: antibody A17 (L17H17) (antibody, V domains shown)
VH: EVQLVESGGGLVQPGGSLRLSCAASGFTFSNYAMSWVRQAPGKGLEWVSAISGGGLSTYYADSVKGRFTISRDNSKNTLYLQMNSLRAEDTAVYYCAKDLLWLGFDYWGQGTLVTVSS
VL: DIQMTQSPSSLSASVGDRVTITCRASQAIRNDLGWYQQKPGKAPKRLIYAASSLQSGVPPRFSGSGSGTEFTLTISSLQPEDFATYYCLQHNSYPLTFGGGTKVEIK
notes: also called aCTLA-4.17
With B5, the Kd came to 6.3 nM in assay [6], 51 nM in assay [1] and 51 nM in assay [2]. The molecule also registered a koff in assay [2] of 0.0034 s⁻¹. Besides, in assay [2], the kon was 66000 M⁻¹ s⁻¹. Further, the “Promega assay % inhibition” value in assay [7] came out at 0%.

B6: antibody A26 (L26H26) (antibody, V domains shown)
VH: QVQLVQSGAEVKKPGASVKVSCKASDYTFTYYGISWVRQAPGQGLEWMGWISAYNGNTNYAQKLQGRVTMTTDTSTNTAYLELRSLRSDDTAVYYCARDYYDSSGYFDYWGQGTLVTVSS
VL: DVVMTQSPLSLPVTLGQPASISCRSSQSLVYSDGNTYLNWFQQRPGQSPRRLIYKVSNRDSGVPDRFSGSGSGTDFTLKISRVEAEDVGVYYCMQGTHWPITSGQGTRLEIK
notes: also called aCTLA-4.20
As to B6, binding in assay [1] was characterised by a dissociation constant (Kd) of 74 nM. Also, in assay [2], binding was characterised by a dissociation constant (Kd) of 74 nM, the koff turned out to be 0.00026 s⁻¹ and the kon worked out at 3500 M⁻¹ s⁻¹.

B7: antibody A15 (L15H15) (antibody, V domains shown)
VH: QVQLVESGGGVVQPGRSLRLSCAASGFTFRSYGMHWVRQAPGKGLEWVAVIWYDGSNKHYADSVKGRFTISRDNSKNTLYLQMNSLRAEDTAVYYCARNGLIGAFDIWGQGTMVTVSS
VL: not shown
notes: also called aCTLA-4.18
For B7, the figures for the Kd in assay [6], in assay [1] and in assay [2] were 2.6 nM, 10 nM and 10 nM, respectively. Besides, the koff in assay [2] came out at 0.00073 s⁻¹. In assay [2], this molecule showed a kon of 70000 M⁻¹ s⁻¹. The “Promega assay % inhibition” value in assay [7] amounted to 0%.

B8: antibody A16 (L16H16) (antibody, V domains shown)
VH: QVQLVESGGGVVQPGRSLRLSCAASGFTFSSYGIHWVRQAPGKGLEWVAVIWYDGSNKYYADSVKGRFTISRDNSKNTLYLQMNSLRAEDTAVYYCARGSLLGPFDYWGQGTLVTVSS
VL: DIQMTQSPSSLSASVGDRVTITCRASQGISNYLAWYQQKPGKVPKLLIYAASTLQSGVPSRFSGSGSGTDFTLTISSLQPEDVATYYCQNYNSAPWTFGQGTKVEIK
notes: also called aCTLA-4.5
As to B8, the Kd in assay [6] was 2.8 nM; in assay [1], 23 nM; in assay [2], 23 nM. Moreover, in assay [2], the koff came to 0.00072 s⁻¹. Moreover, the kon in assay [2] came to 31000 M⁻¹ s⁻¹. The “Promega assay % inhibition” value in assay [7] stood at 0%.

B9: antibody A12 (L12H12) (antibody, V domains shown)
VH: QVQLVESGGGVVQPGRSLRLSCAASGFTFSSYGMHWVRQAPGKGLEWVAVIWYDGSNKYYADSVKGRFTFSRDNSKNTLYLQMNSLRAEDTAVYYCARGGLMGAFDYWGQGTLVTVSS
VL: not shown
notes: also called aCTLA-4.12; CTLA4.A12
For B9, the “MFI of CD27+ CHO cells” value with CD27 on CHO cells [4] worked out at 17.1. Besides, the binding result with CD27 on CHO cells [5] is “no binding (tested: 10 µg/mL)”.

B10: antibody A18 (L18H18) (antibody, V domains shown)
VH: QVQLVESGGGVVQPGRSLRLSCAASGFTFSSYGMHWVRQAPGKGLEWVAVIWYDGSNKFYADSVKGRFTISSDNSKNTLYLQMNSLRAEDTAVYYCARGGHLGSFDYWGQGTLVTVSS
VL: EIVLTQSPGTLSLSPGERATLSCRASQSVSYLAWYQQKPGQAPRLLIYGASSRATGIPDRFSGSGSGTDFTLTISRLEPEDFAVYYCQQYGSSPWTFGQGTKVEIK
notes: also called aCTLA-4.11
With B10, the “MFI of CD27+ CHO cells” value with CD27 on CHO cells [4] was 14.8. The binding result with CD27 on CHO cells [5] is on record as “no binding (tested: 10 µg/mL)”.
